What follows are sequences tested on Escherichia coli TOP10 (assay: shrunken log2 fold change of peptide-encoding DNA abundance (4.5 h post-induction vs induction); higher = less antimicrobial activity (less host growth inhibition)). Details: time post-induction: 4.5 h; library: site-saturation at positions 5, 18, 19, 20.
In the case of RRIRSRPPRLPRPRPRPINPPRP, the “shrunken log2 fold change” value is reported as -0.447. For RRIRVRPPRLPRPRPRPIWYPRP, the “shrunken log2 fold change” value was -0.146. With RRIRLRPPRLPRPRPRPTARPRP the “shrunken log2 fold change” value was 1.13. For RRIRRRPPRLPRPRPRPWYEPRP, the “shrunken log2 fold change” value was -0.16. For RRIRQRPPRLPRPRPRPIITPRP, the “shrunken log2 fold change” value was -1.01. In the case of RRIRIRPPRLPRPRPRPVSQPRP, the “shrunken log2 fold change” value is reported as -0.0669. RRIRHRPPRLPRPRPRPPCCPRP was tested, and the “shrunken log2 fold change” value was -0.0551. In the case of RRIRRRPPRLPRPRPRPCYWPRP, the “shrunken log2 fold change” value is reported as 0.00692. In the case of RRIRYRPPRLPRPRPRPHKMPRP, the “shrunken log2 fold change” value is reported as -0.153. RRIRWRPPRLPRPRPRPHCWPRP was tested, and the “shrunken log2 fold change” value was 0.202. In the case of RRIRTRPPRLPRPRPRPNQVPRP, the “shrunken log2 fold change” value is reported as 0.00376. In the case of RRIRYRPPRLPRPRPRPHENPRP, the “shrunken log2 fold change” value is reported as -0.212. For RRIRGRPPRLPRPRPRPAIFPRP, the “shrunken log2 fold change” value was 0.583. In the case of RRIRIRPPRLPRPRPRPKRMPRP, the “shrunken log2 fold change” value is reported as -0.518. RRIRWRPPRLPRPRPRPCWMPRP was tested, and the “shrunken log2 fold change” value was 0.0693. In the case of RRIRLRPPRLPRPRPRPQIGPRP, the “shrunken log2 fold change” value is reported as 0.0441. In the case of RRIRARPPRLPRPRPRPCAIPRP, the “shrunken log2 fold change” value is reported as -0.00341. In the case of RRIRMRPPRLPRPRPRPFIQPRP, the “shrunken log2 fold change” value is reported as 0.0137. In the case of RRIRRRPPRLPRPRPRPGQNPRP, the “shrunken log2 fold change” value is reported as 0.203. With RRIRYRPPRLPRPRPRPHSQPRP the “shrunken log2 fold change” value was -0.71. For RRIRKRPPRLPRPRPRPLKAPRP, the “shrunken log2 fold change” value was 0.0198. With RRIRKRPPRLPRPRPRPMNWPRP the “shrunken log2 fold change” value was 0.134. RRIRMRPPRLPRPRPRPEQIPRP was tested, and the “shrunken log2 fold change” value was 0.527. RRIRPRPPRLPRPRPRPMMGPRP was tested, and the “shrunken log2 fold change” value was 0.0538. For RRIRWRPPRLPRPRPRPSWTPRP, the “shrunken log2 fold change” value was -0.0457. In the case of RRIRHRPPRLPRPRPRPNESPRP, the “shrunken log2 fold change” value is reported as -0.506. For RRIRYRPPRLPRPRPRPFPRPRP, the “shrunken log2 fold change” value was -0.0964. In the case of RRIRLRPPRLPRPRPRPCVAPRP, the “shrunken log2 fold change” value is reported as 0.238. With RRIRKRPPRLPRPRPRPCDIPRP the “shrunken log2 fold change” value was -0.0579. With RRIRLRPPRLPRPRPRPAFQPRP the “shrunken log2 fold change” value was 0.108. RRIRQRPPRLPRPRPRPTMEPRP was tested, and the “shrunken log2 fold change” value was -0.0535. RRIRWRPPRLPRPRPRPQLLPRP was tested, and the “shrunken log2 fold change” value was 0.115. RRIRHRPPRLPRPRPRPRIWPRP was tested, and the “shrunken log2 fold change” value was 0.242. RRIRSRPPRLPRPRPRPSDWPRP was tested, and the “shrunken log2 fold change” value was 0.0164. In the case of RRIRRRPPRLPRPRPRPYSQPRP, the “shrunken log2 fold change” value is reported as -0.032. For RRIRQRPPRLPRPRPRPRHYPRP, the “shrunken log2 fold change” value was -0.191. For RRIRCRPPRLPRPRPRPNKGPRP, the “shrunken log2 fold change” value was -0.302. For RRIRGRPPRLPRPRPRPVPYPRP, the “shrunken log2 fold change” value was 0.11. With RRIRCRPPRLPRPRPRPRYGPRP the “shrunken log2 fold change” value was -0.499. In the case of RRIRMRPPRLPRPRPRPDDPPRP, the “shrunken log2 fold change” value is reported as 1.6. In the case of RRIRIRPPRLPRPRPRPDLIPRP, the “shrunken log2 fold change” value is reported as -0.217. With RRIRTRPPRLPRPRPRPMDRPRP the “shrunken log2 fold change” value was -0.01. RRIRARPPRLPRPRPRPCFEPRP was tested, and the “shrunken log2 fold change” value was 0.438. For RRIRFRPPRLPRPRPRPVIRPRP, the “shrunken log2 fold change” value was -0.68. RRIRTRPPRLPRPRPRPPCLPRP was tested, and the “shrunken log2 fold change” value was -0.0659. For RRIRKRPPRLPRPRPRPAAPPRP, the “shrunken log2 fold change” value was 1.6. In the case of RRIRCRPPRLPRPRPRPSQIPRP, the “shrunken log2 fold change” value is reported as -0.698. With RRIRHRPPRLPRPRPRPMLEPRP the “shrunken log2 fold change” value was 0.0721. In the case of RRIRNRPPRLPRPRPRPVEHPRP, the “shrunken log2 fold change” value is reported as -0.123. For RRIRARPPRLPRPRPRPPEEPRP, the “shrunken log2 fold change” value was 1.73. For RRIRARPPRLPRPRPRPVMIPRP, the “shrunken log2 fold change” value was 0.0471. RRIRFRPPRLPRPRPRPKEAPRP was tested, and the “shrunken log2 fold change” value was 0.084. RRIRCRPPRLPRPRPRPIWHPRP was tested, and the “shrunken log2 fold change” value was -0.239. For RRIRWRPPRLPRPRPRPQIDPRP, the “shrunken log2 fold change” value was -0.688. In the case of RRIRYRPPRLPRPRPRPFQAPRP, the “shrunken log2 fold change” value is reported as -0.464. For RRIRWRPPRLPRPRPRPNFMPRP, the “shrunken log2 fold change” value was 0.0497. With RRIRDRPPRLPRPRPRPSVEPRP the “shrunken log2 fold change” value was 1.45. RRIRCRPPRLPRPRPRPGHMPRP was tested, and the “shrunken log2 fold change” value was -0.0628. RRIRWRPPRLPRPRPRPWNFPRP was tested, and the “shrunken log2 fold change” value was -0.188. RRIRERPPRLPRPRPRPMAYPRP was tested, and the “shrunken log2 fold change” value was -0.0427. With RRIRERPPRLPRPRPRPNTEPRP the “shrunken log2 fold change” value was 0.0956. With RRIRLRPPRLPRPRPRPACWPRP the “shrunken log2 fold change” value was 0.498. With RRIRPRPPRLPRPRPRPIDQPRP the “shrunken log2 fold change” value was -0.116. With RRIRWRPPRLPRPRPRPYGHPRP the “shrunken log2 fold change” value was -0.478. RRIRPRPPRLPRPRPRPSVHPRP was tested, and the “shrunken log2 fold change” value was -0.289. With RRIRNRPPRLPRPRPRPPEEPRP the “shrunken log2 fold change” value was -0.032. For RRIRCRPPRLPRPRPRPFWWPRP, the “shrunken log2 fold change” value was 0.925. With RRIRVRPPRLPRPRPRPPWTPRP the “shrunken log2 fold change” value was 0.223. For RRIRMRPPRLPRPRPRPVGAPRP, the “shrunken log2 fold change” value was 1.34. RRIRRRPPRLPRPRPRPFGLPRP was tested, and the “shrunken log2 fold change” value was -0.0905. For RRIRTRPPRLPRPRPRPVVLPRP, the “shrunken log2 fold change” value was -0.149. For RRIRMRPPRLPRPRPRPQNFPRP, the “shrunken log2 fold change” value was 0.0982. RRIRNRPPRLPRPRPRPACVPRP was tested, and the “shrunken log2 fold change” value was 0.0235. RRIRCRPPRLPRPRPRPDTSPRP was tested, and the “shrunken log2 fold change” value was -0.365. In the case of RRIRCRPPRLPRPRPRPEFCPRP, the “shrunken log2 fold change” value is reported as 0.0369. RRIRWRPPRLPRPRPRPNWWPRP was tested, and the “shrunken log2 fold change” value was 0.182. RRIRPRPPRLPRPRPRPACDPRP was tested, and the “shrunken log2 fold change” value was 0.00904. With RRIRARPPRLPRPRPRPFLTPRP the “shrunken log2 fold change” value was 0.085. With RRIRQRPPRLPRPRPRPIGGPRP the “shrunken log2 fold change” value was -0.0328. For RRIRYRPPRLPRPRPRPMPNPRP, the “shrunken log2 fold change” value was -0.0961. With RRIRWRPPRLPRPRPRPSAFPRP the “shrunken log2 fold change” value was 0.0981. RRIRGRPPRLPRPRPRPVPEPRP was tested, and the “shrunken log2 fold change” value was 1.98. RRIRYRPPRLPRPRPRPRKKPRP was tested, and the “shrunken log2 fold change” value was -0.0257. RRIRSRPPRLPRPRPRPMWGPRP was tested, and the “shrunken log2 fold change” value was -0.0451. With RRIRLRPPRLPRPRPRPGYFPRP the “shrunken log2 fold change” value was -0.347. With RRIRFRPPRLPRPRPRPCLLPRP the “shrunken log2 fold change” value was -1.19. In the case of RRIRERPPRLPRPRPRPYWSPRP, the “shrunken log2 fold change” value is reported as -0.568. RRIRVRPPRLPRPRPRPMFTPRP was tested, and the “shrunken log2 fold change” value was -0.0798. In the case of RRIRFRPPRLPRPRPRPEANPRP, the “shrunken log2 fold change” value is reported as 0.666. For RRIRLRPPRLPRPRPRPGMVPRP, the “shrunken log2 fold change” value was -0.0517. With RRIRVRPPRLPRPRPRPYQGPRP the “shrunken log2 fold change” value was -0.236. With RRIRLRPPRLPRPRPRPKLFPRP the “shrunken log2 fold change” value was 0.306. For RRIRLRPPRLPRPRPRPMAIPRP, the “shrunken log2 fold change” value was 0.11. With RRIRCRPPRLPRPRPRPAARPRP the “shrunken log2 fold change” value was 0.392. RRIRLRPPRLPRPRPRPTCHPRP was tested, and the “shrunken log2 fold change” value was 0.000681. With RRIRRRPPRLPRPRPRPYSYPRP the “shrunken log2 fold change” value was -0.0587. RRIRKRPPRLPRPRPRPMHEPRP was tested, and the “shrunken log2 fold change” value was 0.191. In the case of RRIRFRPPRLPRPRPRPDAQPRP, the “shrunken log2 fold change” value is reported as 0.483. For RRIRMRPPRLPRPRPRPSSDPRP, the “shrunken log2 fold change” value was 0.111. In the case of RRIRQRPPRLPRPRPRPAMNPRP, the “shrunken log2 fold change” value is reported as -0.115. In the case of RRIRNRPPRLPRPRPRPLTSPRP, the “shrunken log2 fold change” value is reported as -0.0977. With RRIRTRPPRLPRPRPRPLEDPRP the “shrunken log2 fold change” value was -0.163. For RRIRARPPRLPRPRPRPWYAPRP, the “shrunken log2 fold change” value was -0.307. In the case of RRIRSRPPRLPRPRPRPAPTPRP, the “shrunken log2 fold change” value is reported as 0.732. RRIRPRPPRLPRPRPRPMEWPRP was tested, and the “shrunken log2 fold change” value was -0.0225. RRIRGRPPRLPRPRPRPHMMPRP was tested, and the “shrunken log2 fold change” value was -0.0708. In the case of RRIRHRPPRLPRPRPRPSWDPRP, the “shrunken log2 fold change” value is reported as -0.205. With RRIRGRPPRLPRPRPRPWMYPRP the “shrunken log2 fold change” value was -0.0352. RRIRMRPPRLPRPRPRPMNHPRP was tested, and the “shrunken log2 fold change” value was -0.129. For RRIRCRPPRLPRPRPRPIFQPRP, the “shrunken log2 fold change” value was -0.0452. For RRIRKRPPRLPRPRPRPPGEPRP, the “shrunken log2 fold change” value was 0.617. In the case of RRIRIRPPRLPRPRPRPPWIPRP, the “shrunken log2 fold change” value is reported as -0.173. With RRIRKRPPRLPRPRPRPAATPRP the “shrunken log2 fold change” value was 0.838. For RRIRNRPPRLPRPRPRPHAYPRP, the “shrunken log2 fold change” value was 0.00658. For RRIRCRPPRLPRPRPRPMMYPRP, the “shrunken log2 fold change” value was -0.12. With RRIRLRPPRLPRPRPRPIEPPRP the “shrunken log2 fold change” value was 0.144. In the case of RRIRFRPPRLPRPRPRPKREPRP, the “shrunken log2 fold change” value is reported as 0.0359. With RRIRCRPPRLPRPRPRPHRWPRP the “shrunken log2 fold change” value was 0.317. RRIRRRPPRLPRPRPRPQKHPRP was tested, and the “shrunken log2 fold change” value was 0.0365. RRIRVRPPRLPRPRPRPNCPPRP was tested, and the “shrunken log2 fold change” value was -0.0515. RRIRRRPPRLPRPRPRPMYTPRP was tested, and the “shrunken log2 fold change” value was -0.219. For RRIRQRPPRLPRPRPRPNLMPRP, the “shrunken log2 fold change” value was -0.196. In the case of RRIRMRPPRLPRPRPRPYASPRP, the “shrunken log2 fold change” value is reported as -0.0515. For RRIRVRPPRLPRPRPRPDDRPRP, the “shrunken log2 fold change” value was -0.0538. For RRIRFRPPRLPRPRPRPYPFPRP, the “shrunken log2 fold change” value was -0.69.

Source: the supplement of paper PMC9112550, “Optimization of the antimicrobial peptide Bac7 by deep mutational scanning” (BMC Biology, 2022)
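Also: peptides expressed intracellularly from a pBAD plasmid library in pooled LB shake-flask culture, induced with 0.3% L-arabinose, DNA abundance read by NGS, three biological replicates, DESeq2 with apeglm shrinkage.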
